One block for each substance: values may come before it.
Target: 14-3-3ε (UniProt P62258)
Assay: anti-FLAG co-IP of HA-TAK1, immunoblot
Settings: reference: wild type

UniProt P62258, sequence (P62258 whole entry, looked up): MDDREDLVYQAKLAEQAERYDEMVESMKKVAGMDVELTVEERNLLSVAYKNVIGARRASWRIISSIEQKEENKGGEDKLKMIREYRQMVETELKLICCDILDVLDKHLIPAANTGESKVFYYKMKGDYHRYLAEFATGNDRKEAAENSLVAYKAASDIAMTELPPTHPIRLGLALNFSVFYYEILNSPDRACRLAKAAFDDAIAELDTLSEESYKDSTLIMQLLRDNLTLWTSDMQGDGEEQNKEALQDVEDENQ

binding against the reference (sites S192): weaker
Substance: TAK1 (MAP3K7) (from UniProt O43318-2) S192A

binding against the reference (sites T184): weaker
Substance: TAK1 (MAP3K7) (from UniProt O43318-2) T184A

binding against the reference (sites T187): weaker
Substance: TAK1 (MAP3K7) (from UniProt O43318-2) T187A

— publication PMC3589417
